According to patent publication US20190211082A1:

What was measured:
[1] = biological target: Fab fragment (IgG-Fab) derived from anti-IgE monoclonal antibody Omalizumab ("Xolair" manufactured by Novartis AG), made by papain digestion; assay: affinity chromatography, 1 mg Fab on 1 mL column, linear pH gradient 5.0 to 3.0 in 100 mM acetate buffer, pH at elution peak top, 25 °C
[2] = biological target: Fab fragment (IgG-Fab) derived from anti-IgE monoclonal antibody Omalizumab ("Xolair" manufactured by Novartis AG), made by papain digestion; assay: affinity chromatography, 1 mg Fab on 1 mL column, linear pH gradient 5.0 to 2.4 in 100 mM citrate buffer, pH at elution peak top, 25 °C
[3] = biological target: humanized monoclonal IgG (anti-IgE monoclonal antibody, "Xolair" manufactured by Novartis AG; generic name Omalizumab); assay: affinity chromatography, 1 mg IgG on 1 mL column, linear pH gradient 5.0 to 2.4 in 100 mM citrate buffer, pH at elution position
[4] = biological target: humanized monoclonal IgG (anti-IgE monoclonal antibody, "Xolair" manufactured by Novartis AG; generic name Omalizumab); assay: affinity chromatography, 1 mg IgG on 1 mL column, linear pH gradient 5.0 to 3.0 in 100 mM acetate buffer, pH at elution position

| Substance | Antibody elution pH (100 mM acetate buffer) [1] | Antibody elution pH (100 mM citrate buffer) [2] | Antibody elution pH (100 mM citrate buffer) [3] | Antibody elution pH (100 mM acetate buffer) [4] |
| --- | --- | --- | --- | --- |
| VL-κ-binding peptide of Experimental product A: 4 VL-κ-binding domains (SEQ ID NO: 2) of wild Protein L of Peptostreptococcus magnus 312 strain bound through the peptides that connect domains in SEQ ID NO: 1, with an active group for immobilization at the C-terminal (designed binder) | 3.47 pH | 2.71 pH | – | – |
| Protein A ligand of the commercially available Protein A carrier "HiTrap MabSelect SuRe" manufactured by GE Healthcare | – | – | 3.53 pH | 3.64 pH |
| Protein L ligand of the commercially available affinity separation matrix "HiTrap Protein L 1 mL-gel" manufactured by GE Healthcare | 3.6 pH | 2.93 pH | – | – |
